The values that follow come from publication PMC2714181.

The target of one data set is Cys10 (UniProt position 10, TIYFICTGNSA). Put plainly: UV-vis. The settings on record: poly buffer: 1 mM EDTA, 10 mM Na-borate, 10 mM Na-phosphate, 10 mM Na-citrate (starting pH 8), titrated by stepwise addition of 100 mM HCl; oxidized with arsenate (Cys82-Cys89 disulfide), Cys10 free thiol.
The target in another data set is Cys89 (UniProt position 89, DADNNCPILPP). Nature of the data set: UV-vis. To be noted: poly buffer: 1 mM EDTA, 10 mM Na-borate, 10 mM Na-phosphate, 10 mM Na-citrate, 10 mM CAPS (starting pH 11.4), titrated by stepwise addition of 100 mM HCl; reduced (DTT-treated, DTT removed), free protein.
The target of data set [1] is Cys29 (UniProt position 29, FWATWCGPCKM). To be noted: reduced active-site thiol(s) implied, not stated; cited from earlier work.
The target in another data set is Cys32 (UniProt position 33, FWAEWCGPCKM). To be noted: reduced active-site thiol(s) implied, not stated; cited from earlier work.
In data set [2] the target is Cys29 (UniProt position 29, FWATWCGTSKM). To be noted: reduced active-site thiol(s) implied, not stated; cited from earlier work.

In turn, “Arsenate reductase ArsC (plasmid pI258), C15A, oxidized form (Staphylococcus aureus; C15A)” gave a pKa in the data set with Cys10 of 6.8. In the case of “Arsenate reductase ArsC (plasmid pI258), C10S/C15A/C82A triple mutant (Sa_ArsC^Trip) (Staphylococcus aureus; C10S;C15A;C82A)”, the pKa in the data set with Cys89 is listed as 9.5. As to “Thioredoxin (Sa_Trx), wild type (Staphylococcus aureus)”, in the data set with Cys29 [1], the pKa is on record as 7.1. “Thioredoxin 1 (Ec_Trx1) (Escherichia coli)”: in the data set with Cys32, the pKa was 7.1. Take “Thioredoxin (Sa_Trx, Trx1) P31T/C32S (Staphylococcus aureus; P31T;C32S)”: the pKa in the data set with Cys29 [2] is given as 6.4.

Broadly, the pKa is the pH at which an ionisable group is half protonated.
